Results reported in patent US20210179717A1 (ALBERT LUDWIGS UNIVERSIT T FREIBURG, published 2021).

Legend:
[1] = molecular target: human Mac-1 (αMβ2, CD11b/CD18), native, non-activated (WT) (human, UniProt P11215 17-1152; P05107 23-769); experiment: western blot of CHO cells over-expressing Mac-1
[2] = molecular target: T1, peptide M7 (EQLKKSKTL) (human); experiment: solid phase binding assay, immobilized peptide M7
T1 construct: Immobilised peptide from the human Mac-1 αM I-domain
T1 peptide: EQLKKSKTL

[3] = molecular target: T2, scrambled peptide sM7 (KLSLEKQTK); experiment: solid phase binding (ELISA) with immobilized peptides
T2 construct: Scrambled control of M7
T2 peptide: KLSLEKQTK
Protocol: (§1) Specific binding was calculated by subtraction of binding of mouse IgG to the peptides.

[4] = molecular target: T3, peptide M8 (EEFRIHFT) (human); experiment: as above
T3 peptide: EEFRIHFT
Protocol: as §1

binding result [1]: binds
binding result [2]: binds
binding result [3]: no binding
binding result [4]: no binding
B1: anti-M7 (mouse monoclonal antibody, clone RC3, mouse IgG2bκ) (antibody, V domains shown)
VH: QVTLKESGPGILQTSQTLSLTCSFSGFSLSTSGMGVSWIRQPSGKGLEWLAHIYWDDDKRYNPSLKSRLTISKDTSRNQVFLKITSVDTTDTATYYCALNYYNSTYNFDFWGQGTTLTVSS
VL: DIQMTQSPSSLSASLGERVSLTCRASQEISGYLSWHQQKPDGTIKRLLYSTSTLDSGVPKRFSGSRSGSDYSLTISSLESEDFADYYCLQYAISPPTFGGGTKLEIK
notes: Coupled to Alexa Fluor 647 for flow cytometry; also called anti-M7-Alexa 647
